From patent US20040266687A1, “Compositions and methods comprising protein activated receptor antagonists” (priority 2002, published 2004)

T1: PAR-1 (Homo sapiens, UniProt P25116)
T1 construct: endogenous in cells; host or cells: HUVEC or HT29 colon carcinoma cells
T1 sequence (P25116 22-425): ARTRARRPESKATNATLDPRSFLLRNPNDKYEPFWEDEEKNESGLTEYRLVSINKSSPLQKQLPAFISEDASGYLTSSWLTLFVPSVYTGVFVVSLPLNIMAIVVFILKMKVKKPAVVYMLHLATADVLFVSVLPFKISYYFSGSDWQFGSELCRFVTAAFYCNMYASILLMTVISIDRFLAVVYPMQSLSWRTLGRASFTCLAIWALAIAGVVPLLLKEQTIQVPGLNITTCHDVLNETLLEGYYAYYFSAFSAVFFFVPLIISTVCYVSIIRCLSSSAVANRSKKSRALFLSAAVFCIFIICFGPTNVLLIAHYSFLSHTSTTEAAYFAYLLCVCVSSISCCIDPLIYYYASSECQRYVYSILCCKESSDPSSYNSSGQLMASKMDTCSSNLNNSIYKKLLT

T2: PAR-2 (Homo sapiens, UniProt P55085)
T2 construct: endogenous in cells; host or cells: HUVEC or HT29 colon carcinoma cells
T2 sequence (P55085 26-397): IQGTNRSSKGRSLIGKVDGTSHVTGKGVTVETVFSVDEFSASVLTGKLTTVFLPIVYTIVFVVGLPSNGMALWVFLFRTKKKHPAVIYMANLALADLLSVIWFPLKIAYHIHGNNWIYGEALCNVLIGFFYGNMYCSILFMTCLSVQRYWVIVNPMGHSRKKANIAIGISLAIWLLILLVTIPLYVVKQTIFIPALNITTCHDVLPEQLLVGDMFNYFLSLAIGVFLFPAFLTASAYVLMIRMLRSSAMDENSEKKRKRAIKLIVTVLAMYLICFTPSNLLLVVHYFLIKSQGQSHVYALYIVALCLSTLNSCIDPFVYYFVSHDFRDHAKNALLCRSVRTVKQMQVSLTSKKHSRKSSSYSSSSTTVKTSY

T3: Proteinase activated receptor-2 (PAR-2) (UniProt P55085 37-397, limits assumed)
T3 sequence (looked up): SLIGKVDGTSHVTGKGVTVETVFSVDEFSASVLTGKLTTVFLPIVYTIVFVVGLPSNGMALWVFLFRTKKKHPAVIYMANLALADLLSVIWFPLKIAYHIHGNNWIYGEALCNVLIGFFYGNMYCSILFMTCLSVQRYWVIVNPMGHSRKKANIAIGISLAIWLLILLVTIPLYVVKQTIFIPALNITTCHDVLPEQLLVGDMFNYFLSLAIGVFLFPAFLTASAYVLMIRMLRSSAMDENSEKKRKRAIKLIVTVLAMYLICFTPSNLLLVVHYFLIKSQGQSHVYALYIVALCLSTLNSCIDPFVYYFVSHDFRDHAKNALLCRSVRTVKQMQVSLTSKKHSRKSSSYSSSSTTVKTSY


Legend:
[1] = Arthritis in mice (anti-collagen II antibody plus LPS), foot thickness; type: in vivo; details: 200 mg/kg/day i.p. for 7 days, Balb/c mice, FIG. 19
Method: On day 0, Balb/c mice were injected IV with the 1 -2 mg 1B11 monoclonal anti-collagen II antibody. On day 1, animals were injected i.p with 20 ug LPS, and treatment with PAR-2 antagonists (200 mg/kg/day i.p). for 7 days is initiated. After treatment was completed, disease is quantified by measuring the thickness (swelling) in both feet of the mouse. This was compared to untreated mice. (p<0.05 vs. vehicle control)

PAR-1 = biological target: T1, PAR-1; test: Activation study with PAR-1 activation peptide SFLLRN on cells pretreated with antagonist; type: cell-based; details: cells pretreated with the substance
Method: (§1) Confluent HUVECs or HT29 colon carcinoma cells were loaded for 30-60 minutes with the fluorescent dye Fluo-4. Final concentration 4 uM Fluo-4, 0.02% pluronic acid in physiological buffer. Cells were then washed with assay buffer, (HBSS containing 1 mM CaCl2, 1 mM MgSO4, and 2.5 mM probenecid). Cells were stimulated with various doses of PAR-2 activating peptide, PAR-1 activating peptide or ATP.
(§2) Fluorescence was monitored using a Wallac 1470 fluorescent plate reader. (See Al-ani et. al Journal of Pharmacology and Experimental Therapeutics 290:2, 753-760)
(§3) Both of these molecules signal through G-protein coupled receptors, and PAR-1 is very highly homologous to PAR-2, to the degree that the PAR-1 agonist peptide can signal through PAR-2 at high concentrations.

Lewis lung carcinoma = Lewis lung carcinoma (LLC) experimental metastatic model; type: in vivo, mice; details: metastatic tumor growth studies, FIG. 16
Method: In this tumor growth model, treatments were initiated on day 3 post inoculation, after tumor cells had homed to the lung, and started growing. […] At a dose of 4 mg/day tumor growth was inhibited by 75%. […] C57/B16 mice were injected i.v. with Lewis lung carcinoma. 3 days later, treatment of lung tumors was started with i.p. LIGK (SEQ ID NO:1) for 11 days.

[2] = system: ATP signaling (G-protein coupled receptors); test: Activation study with ATP on cells pretreated with antagonist; type: cell-based; details: cells pretreated with the substance
Method: as §1, §2, §3

PAR-2 [3] = biological target: T2, PAR-2; test: Inhibition of P2AP (SLIGKV)-stimulated PAR-2 signaling in cells pretreated with antagonist; type: cell-based; details: result in words; cells pretreated with the substance, then P2AP
Method: as §1, §2
In order to assess the potential of peptides selected above to block PAR-2 signaling, cells were pretreated with potential antagonist peptides for a predetermined amount of time and were subsequently treated with P2AP. Methods and protocols used were the same as those described in Example 1.

PAR-2 [4] = biological target: T2, PAR-2; test: PAR signalling activity: calcium mobilization (Fluo-4) in response to peptides; type: cell-based; details: result in words, FIG. 4A-4C
Method: as §1, §2
Calcium mobilization curves of the PAR-2 agonist SLIGKV (SEQ ID NO:25) compared with two truncated molecules LIGK (SEQ ID NO:1) and LIGKV (SEQ ID NO:2) are provided in FIG. 4A. […] Similar studies were performed on alanine substituted SLIGKV (SEQ ID NO:25) peptides (FIGS. 4B and 4C).

[5] = biological target: T3, Proteinase activated receptor-2 (PAR-2); test: cell-based or functional assay

Molecule | antagonist activity on PAR-2 signaling (PAR-2 [3]) | calcium mobilization / signaling activity (PAR-2 [4]) | other results
Br.CC(C)CC(=O)N1CCN(C(=O)CCCCCN)CC1 [ENMD-547] | extremely potent inhibitor | – | inflammation (arthritis, foot swelling) [1]: inhibited inflammation; inhibitory effect on signaling by PAR-1 (activation peptide SFLLRN) (PAR-1): no inhibitory effects; antitumor activity relative to the parental LIGK molecule (Lewis lung carcinoma): approximately five fold; inhibitory effect on signaling by ATP [2]: no inhibitory effects
LIGKV | demonstrated antagonist activity | Neither truncated molecule was able to induce calcium mobilization | –
SLIAKV [alanine substituted SLIGKV peptide] | – | robust signaling activity | –
SLIGKA [alanine substituted SLIGKV peptide] | – | robust signaling activity | –
SLIGKV (listed as Homo sapiens) [reference compound] | – | typical spike of calcium release followed by degradation of signal | –
LIGK [LIGK (SEQ ID NO:1)] | – | – | IC50 of inhibition of PAR-2 signaling (calcium mobilization stimulated by SLIGKV) [5]: < 500 µM
